Laboratory results as given in paper PMC9391379, “Ferritin-mediated iron detoxification promotes hypothermia survival in Caenorhabditis elegans and murine neurons” (Nature Communications, 2022).
Substitutions are numbered along the chain they refer to. Numbers in names are those of the source.

Target: the molecule itself
Experiment: native gel or EMSA; recombinant FTN variants (2 µg) resolved on a 4–16% gradient NativePAGE Bis-Tris gel, Coomassie Blue stained; NativeMark standard for the size of complexes; self-assembly into high molecular weight complexes

B1: C. elegans ferritin FTN-2, recombinant, untagged, wild type (natural protein, UniProt Q9TYS3 1-170, looked up)
chain: MSLARQNYHSEVEAAVNKQINIELYASYVYLSMSFYFDRDDVALPNIAKFFKEQSDEEREHATELMRVQNLRGGRVVLQDIQKPENDEWGTALKAFEAALALEKFNNESLLKLHSTAGNHNDAHLTDFIEEKYLDEQVKSINEFARMVANLKRVGPGVGEYVFDKEHFSD
notes: FTN-2, C. elegans ferritin; ORF amplified from C. elegans cDNA and cloned between NcoI and NotI of pET28a; expressed without a tag; also called FTN-2 wt; source: E. coli BL21-CodonPlus (DE3)-RIPL, purified (heat step, acid precipitation, cation exchange)
binding result: binds

B2: C. elegans ferritin FTN-2 E58K/H61G (FeOx-mut), recombinant, untagged (natural protein, UniProt Q9TYS3 1-170, looked up)
chain: B1 chain with E58K, H61G
notes: FTN-2, C. elegans ferritin; ORF in pET28a with the E58K/H61G double mutation made by site-directed mutagenesis; expressed without a tag; also called FTN-2 FeOx-mut; E58K/H61G-mutated FTN-2; source: E. coli BL21-CodonPlus (DE3)-RIPL, purified (heat step, acid precipitation, cation exchange)
binding result: binds

B3: C. elegans ferritin FTN-1, recombinant, untagged, wild type (natural protein, UniProt O16453 1-170, looked up)
chain: MSLARQNYHDEVEAAVNKQINVELYASYVYLSMSAHFDRDDIALRNIAKFFKEQSDEERGHATELMRIQAVRGGRVAMQNIQKPEKDEWGTVLEAFEAALALERANNASLLKLHGIAEQRNDAHLTNYIQEKYLEEQVHSINEFARYIANIKRAGPGLGEYLFDKEEFSD
notes: FTN-1, C. elegans ferritin; ORF amplified from C. elegans cDNA and cloned between NcoI and NotI of pET28a; expressed without a tag; also called FTN-1 wt; source: E. coli BL21-CodonPlus (DE3)-RIPL, purified (heat step, acid precipitation, cation exchange)
binding result: binds

B4: C. elegans ferritin FTN-1 E58K/H61G (FeOx-mut), recombinant, untagged (natural protein, UniProt O16453 1-170, looked up)
chain: B3 chain with E58K, H61G
notes: FTN-1, C. elegans ferritin; ORF in pET28a with the E58K/H61G double mutation made by site-directed mutagenesis; expressed without a tag; also called FTN-1 FeOx-mut; E58K/H61G-mutated FTN-1; source: E. coli BL21-CodonPlus (DE3)-RIPL, purified (heat step, acid precipitation, cation exchange)
binding result: binds
